The results in this text go back to article doi:10.1101/2023.10.26.564242, “KIF1C activates and extends dynein movement through the FHF cargo adaptor” (bioRxiv, 2023).

Sequences and labels used below:
B1: HOOK3-SNAPf labelled with Alexa 647 (natural protein, human, UniProt Q86VS8 1-718, looked up)
chain: MFSVESLERAELCESLLTWIQTFNVDAPCQTVEDLTNGVVMAQVLQKIDPAYFDENWLNRIKTEVGDNWRLKISNLKKILKGILDYNHEILGQQINDFTLPDVNLIGEHSDAAELGRMLQLILGCAVNCEQKQEYIQAIMMMEESVQHVVMTAIQELMSKESPVSAGNDAYVDLDRQLKKTTEELNEALSAKEEIAQRCHELDMQVAALQEEKSSLLAENQVLMERLNQSDSIEDPNSPAGRRHLQLQTQLEQLQEETFRLEAAKDDYRIRCEELEKEISELRQQNDELTTLADEAQSLKDEIDVLRHSSDKVSKLEGQVESYKKKLEDLGDLRRQVKLLEEKNTMYMQNTVSLEEELRKANAARSQLETYKRQVVELQNRLSEESKKADKLDFEYKRLKEKVDSLQKEKDRLRTERDSLKETIEELRCVQAQEGQLTTQGLMPLGSQESSDSLAAEIVTPEIREKLIRLQHENKMLKLNQEGSDNEKIALLQSLLDDANLRKNELETENRLVNQRLLEVQSQVEELQKSLQDQGSKAEDSVLLKKKLEEHLEKLHEANNELQKKRAIIEDLEPRFNNSSLKIEELQEALRKKEEEMKQMEERYKKYLEKAKSVIRTLDPKQNQGAAPEIQALKNQLQERDRLFHSLEKEYEKTKSQREMEEKYIVSAWYNMGMTLHKKAAEDRLASTGSGQSFLARQRQATSSRRSYPGHVQPATAR
modifications: benzylguanine conjugated fluorophore (Alexa 647) on the SNAPf domain
notes: HOOK3, amplified from a human cDNA library, full length; pFastBacM13-8xHis-ZZ-LTLT-HOOK3-SNAPf; An untagged full-length HOOK3 from the same backbone was used in assays with Lis1; source: Sf9 (baculovirus), purified (Ni-NTA, IgG Sepharose, TEV cleavage); not shown: 8xHis, N-terminal, cleaved; ZZ, N-terminal, cleaved; SNAPf, C-terminal, kept
B4: GST-KIF1C stalk 674-922 (domain or fragment, human, UniProt O43896 674-922, looked up)
chain: SDSGDDSDKRSCEESWRLISSLREQLPPTTVQTIVKRCGLPSSGKRRAPRRVYQIPQRRRLQGKDPRWATMADLKMQAVKEICYEVALADFRHGRAEIEALAALKMRELCRTYGKPDGPGDAWRAVARDVWDTVGEEEGGGAGSGGGSEEGARGAEVEDLRAHIDKLTGILQEVKLQNSSKDRELQALRDRMLRMERVIPLAQDHEDENEEGGEVPWAPPEGSEAAEEAAPSDRMPSARPPSPPLSSWE
notes: also called KIF1CS2; source: E. coli SoluBL21, purified (Ni-NTA, Superdex 200); not shown: GST, N-terminal, kept

One data set has as its target T1, full-length KIF1C-GFP (human, UniProt O43896 1-1103).
T1 construct: KIF1C, human, full length; also called KFL
T1 sequence (looked up): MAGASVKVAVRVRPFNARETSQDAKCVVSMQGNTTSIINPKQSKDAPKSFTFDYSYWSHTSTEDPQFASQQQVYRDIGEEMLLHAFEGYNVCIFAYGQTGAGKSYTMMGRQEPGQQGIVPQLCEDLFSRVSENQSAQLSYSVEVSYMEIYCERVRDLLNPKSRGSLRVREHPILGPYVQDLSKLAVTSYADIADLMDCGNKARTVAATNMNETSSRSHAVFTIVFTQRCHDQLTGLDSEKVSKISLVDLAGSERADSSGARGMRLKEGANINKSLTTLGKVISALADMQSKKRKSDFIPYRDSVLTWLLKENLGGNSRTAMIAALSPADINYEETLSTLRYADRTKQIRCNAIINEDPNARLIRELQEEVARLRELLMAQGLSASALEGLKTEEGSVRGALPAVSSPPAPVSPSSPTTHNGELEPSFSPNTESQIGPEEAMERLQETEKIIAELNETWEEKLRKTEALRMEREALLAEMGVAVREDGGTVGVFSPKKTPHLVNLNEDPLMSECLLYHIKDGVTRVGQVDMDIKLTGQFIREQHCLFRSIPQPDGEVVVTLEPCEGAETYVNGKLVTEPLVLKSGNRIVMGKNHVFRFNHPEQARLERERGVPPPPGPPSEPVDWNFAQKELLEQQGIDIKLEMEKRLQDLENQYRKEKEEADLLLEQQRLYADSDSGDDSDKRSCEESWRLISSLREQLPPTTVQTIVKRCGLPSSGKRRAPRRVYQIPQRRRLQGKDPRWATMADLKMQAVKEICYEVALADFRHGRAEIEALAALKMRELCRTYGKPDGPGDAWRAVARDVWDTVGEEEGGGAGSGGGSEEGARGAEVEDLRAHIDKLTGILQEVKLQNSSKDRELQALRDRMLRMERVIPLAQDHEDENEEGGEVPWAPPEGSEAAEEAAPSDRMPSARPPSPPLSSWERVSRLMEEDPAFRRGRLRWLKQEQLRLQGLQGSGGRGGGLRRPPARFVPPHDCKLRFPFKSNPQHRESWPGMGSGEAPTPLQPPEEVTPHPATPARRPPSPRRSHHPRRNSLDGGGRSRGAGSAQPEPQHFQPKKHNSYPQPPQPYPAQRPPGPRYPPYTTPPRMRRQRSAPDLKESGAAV
Description: single-molecule TIRF co-movement on microtubules; TMR-dynein, dynactin, HOOK3-Alexa 647 and KIF1C-GFP mixed (200 nM dynein, 200 nM dynactin, 1600 nM adaptor, 180 nM KIF1C-GFP, ~75 mM KCl), diluted and imaged on taxol microtubules at 25 °C; controls with single components omitted. The settings on record: both partners purified.

Data set [1] deals with the molecule itself. Put plainly: cryo-EM structure; FHF with full-length FTS and FHIP1B and HOOK3 571-718, 0.9 mg/ml with 0.1% CHAPSO or 0.005% Igepal; 3.2 Å reconstruction.
The target of the data set “GST-KIF1C stalk 674-922” is B4. Put plainly: cross-linking; cross-linking mass spectrometry with 10 mM EDC or 5 mM DSSO, room temperature, 60 minutes; full-length FHF or FH^571-718F bound to KIF1C stalk 674-922. The settings on record: both partners purified.
The target in data set [2] is T2, full-length FTS-HOOK3-FHIP1B (FHF) complex (human, UniProt Q9H8T0 1-292; Q86VS8 1-718; Q8N612 1-972).
T2 construct: FTS, human, full length; HOOK3, human, full length; FHIP1B, human, full length; also called full-length FHF; source: Sf9 (baculovirus), co-expressed, purified (Strep-Tactin, Prescission cleavage, Superose 6); not shown: Strep II, N-terminal, cleaved; copies: + 2 +
Put plainly: mass photometry; full-length FHF with KIF1C stalk, diluted to 100 nM in GF150; Refeyn TwoMP. The settings on record: both partners purified.

In data set [3] the target is T2, full-length FTS-HOOK3-FHIP1B (FHF) …. Put plainly: cell-based or functional assay.
The target in data set [4] is B1. Put plainly: cell-based or functional assay.
In data set [5] the target is T3, HOOK3 residues 451-718 (as in FH^451-718F) (human, UniProt Q86VS8 451-718).
T3 construct: The HOOK3 chain of m12, written alone for the row of two; also called HOOK3 C-terminal fragment; not shown: Strep II, N-terminal, cleaved
T3 sequence (looked up): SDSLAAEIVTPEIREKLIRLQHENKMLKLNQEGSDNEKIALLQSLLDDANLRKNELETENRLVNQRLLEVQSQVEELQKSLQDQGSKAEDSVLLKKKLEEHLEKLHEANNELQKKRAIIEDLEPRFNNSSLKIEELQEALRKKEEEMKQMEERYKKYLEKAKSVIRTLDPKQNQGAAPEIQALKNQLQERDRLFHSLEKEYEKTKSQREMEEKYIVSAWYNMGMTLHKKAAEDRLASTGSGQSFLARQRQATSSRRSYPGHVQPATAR
Put plainly: cryo-EM structure; FH^451-718F bound to GST-KIF1C stalk 674-922; low resolution at the KIF1C density. The settings on record: both partners purified.

Data set [6] deals with T4, HOOK3, full length (as in full-length FHF) (human, UniProt Q86VS8 1-718).
T4 construct: HOOK3, human, full length; gene codon optimised for Sf9; The HOOK3 chain of full-length FHF, written alone for the rows of two; not shown: Strep II, N-terminal, cleaved
T4 sequence (looked up): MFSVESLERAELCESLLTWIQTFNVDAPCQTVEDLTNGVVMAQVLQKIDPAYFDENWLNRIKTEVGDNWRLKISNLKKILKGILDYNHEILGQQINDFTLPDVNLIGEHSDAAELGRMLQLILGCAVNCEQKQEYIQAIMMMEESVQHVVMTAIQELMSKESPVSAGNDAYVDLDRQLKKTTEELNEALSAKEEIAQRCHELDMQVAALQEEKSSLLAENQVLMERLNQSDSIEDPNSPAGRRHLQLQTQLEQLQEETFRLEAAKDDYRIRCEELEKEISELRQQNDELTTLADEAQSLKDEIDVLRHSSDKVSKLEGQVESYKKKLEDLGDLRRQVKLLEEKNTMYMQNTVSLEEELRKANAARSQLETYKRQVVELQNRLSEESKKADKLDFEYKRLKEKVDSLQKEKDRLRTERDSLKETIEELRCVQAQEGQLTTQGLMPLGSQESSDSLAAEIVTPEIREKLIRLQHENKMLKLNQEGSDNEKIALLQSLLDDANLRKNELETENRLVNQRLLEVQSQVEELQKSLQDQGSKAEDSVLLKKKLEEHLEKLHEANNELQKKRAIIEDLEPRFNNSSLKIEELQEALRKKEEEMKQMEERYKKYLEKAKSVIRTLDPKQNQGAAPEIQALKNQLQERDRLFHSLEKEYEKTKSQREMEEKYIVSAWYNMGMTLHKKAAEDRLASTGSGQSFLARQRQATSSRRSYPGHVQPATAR
Put plainly: cross-linking; cross-linking mass spectrometry with 10 mM EDC or 5 mM DSSO, room temperature, 60 minutes; full-length FHF or FH^571-718F bound to KIF1C stalk 674-922. The settings on record: both partners purified.

T2 sequence (Q9H8T0 whole entry, chain 1 of 2): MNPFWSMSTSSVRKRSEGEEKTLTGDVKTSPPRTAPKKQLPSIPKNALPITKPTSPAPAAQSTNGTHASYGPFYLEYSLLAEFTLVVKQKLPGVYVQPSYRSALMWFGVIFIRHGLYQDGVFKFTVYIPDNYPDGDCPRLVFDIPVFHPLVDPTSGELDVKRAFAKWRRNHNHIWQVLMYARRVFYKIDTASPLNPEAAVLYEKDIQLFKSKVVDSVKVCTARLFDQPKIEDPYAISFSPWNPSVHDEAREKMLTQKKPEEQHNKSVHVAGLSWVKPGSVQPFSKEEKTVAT
T2 sequence (Q8N612 whole entry, chain 3 of 2): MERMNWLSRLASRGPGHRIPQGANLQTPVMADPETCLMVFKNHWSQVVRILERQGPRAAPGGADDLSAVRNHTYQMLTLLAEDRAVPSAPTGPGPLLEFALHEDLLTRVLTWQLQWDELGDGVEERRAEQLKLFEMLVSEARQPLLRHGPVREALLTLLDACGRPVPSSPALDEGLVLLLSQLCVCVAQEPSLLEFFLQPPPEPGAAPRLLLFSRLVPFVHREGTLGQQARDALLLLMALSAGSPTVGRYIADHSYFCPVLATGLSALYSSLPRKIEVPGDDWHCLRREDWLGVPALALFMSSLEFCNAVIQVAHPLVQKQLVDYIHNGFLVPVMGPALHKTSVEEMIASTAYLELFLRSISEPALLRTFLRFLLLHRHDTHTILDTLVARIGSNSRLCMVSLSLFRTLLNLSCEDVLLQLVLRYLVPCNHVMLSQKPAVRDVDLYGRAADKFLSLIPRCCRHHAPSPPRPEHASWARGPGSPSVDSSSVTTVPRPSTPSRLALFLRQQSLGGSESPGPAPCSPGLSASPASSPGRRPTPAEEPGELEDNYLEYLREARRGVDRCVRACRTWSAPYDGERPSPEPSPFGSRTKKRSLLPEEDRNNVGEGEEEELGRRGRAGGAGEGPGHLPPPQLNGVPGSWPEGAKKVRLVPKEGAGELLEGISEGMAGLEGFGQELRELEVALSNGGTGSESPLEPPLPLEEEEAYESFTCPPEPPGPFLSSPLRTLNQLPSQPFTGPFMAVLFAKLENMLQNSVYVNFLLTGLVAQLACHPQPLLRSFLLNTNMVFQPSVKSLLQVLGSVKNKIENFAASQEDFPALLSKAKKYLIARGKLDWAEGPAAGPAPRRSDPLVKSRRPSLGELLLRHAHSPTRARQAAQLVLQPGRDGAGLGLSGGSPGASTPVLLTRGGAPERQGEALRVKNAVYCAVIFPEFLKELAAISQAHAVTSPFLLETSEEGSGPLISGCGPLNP

Take B1: the binding result with full-length KIF1C-GFP is on record as “binds”.

B2: HOOK3 C-terminal fragment (residues 571-718) (domain or fragment, human, UniProt Q86VS8 571-718, looked up)
chain: DLEPRFNNSSLKIEELQEALRKKEEEMKQMEERYKKYLEKAKSVIRTLDPKQNQGAAPEIQALKNQLQERDRLFHSLEKEYEKTKSQREMEEKYIVSAWYNMGMTLHKKAAEDRLASTGSGQSFLARQRQATSSRRSYPGHVQPATAR
notes: The HOOK3 chain of the FHF cryo-EM construct, written alone for the rows of two; not shown: Strep II, N-terminal, cleaved
B2: the binding result (in data set [1]; with GST-KIF1C stalk 674-922) was “binds” throughout.

B3: GST-KIF1C stalk (residues 642-922) (domain or fragment, human, UniProt O43896 642-922, looked up)
chain: EMEKRLQDLENQYRKEKEEADLLLEQQRLYADSDSGDDSDKRSCEESWRLISSLREQLPPTTVQTIVKRCGLPSSGKRRAPRRVYQIPQRRRLQGKDPRWATMADLKMQAVKEICYEVALADFRHGRAEIEALAALKMRELCRTYGKPDGPGDAWRAVARDVWDTVGEEEGGGAGSGGGSEEGARGAEVEDLRAHIDKLTGILQEVKLQNSSKDRELQALRDRMLRMERVIPLAQDHEDENEEGGEVPWAPPEGSEAAEEAAPSDRMPSARPPSPPLSSWE
notes: also called KS; Ks; source: E. coli SoluBL21, purified (Ni-NTA, Superdex 200); not shown: GST, N-terminal, kept
Take B3: the “stoichiometry N” value in data set [2] was 1 dimeric KIF1C stalk per FHF. Also, the “processive events of dynein-dynactin-FHF (TIRF), with KIF1C stalk against a DDFHF control” value in data set [3] is approximately 3.7 fold. For the same molecule, the “dynein microtubule recruitment (TMR-dynein landing rate, TIRF) with dynactin, HOOK3 and Lis1, with against without the KIF1C stalk construct (GST-KIF1C642-922-GFP in this assay)” value in data set [4] amounted to 2.6 fold.

With B4, the binding result in data set [5] and in data set [6] was “binds” in each case.
